The values that follow come from publication PMC5380656 (The Journal of Allergy and Clinical Immunology, 2017).

Assay [1] deals with T1, staphylococcal enterotoxin D (Staphylococcus aureus, strain , UniProt P20723).
T1 construct: source: bought: Toxin Technology
Briefly: ELISA.

For assay [2], the target named is T2, staphylococcal enterotoxin C1 (Staphylococcus aureus, strain , UniProt P01553).
T2 construct: source: bought: Toxin Technology
Description: ELISA. The settings on record: both partners purified. Background: An ELISA detects its analyte on a solid surface through an enzyme-linked reagent.

The target of assay [3] is T3, staphylococcal enterotoxin A (Staphylococcus aureus, strain , UniProt P0A0L2).
T3 construct: source: bought: Toxin Technology
Description: ELISA.

Assay [4] addresses T4, staphylococcal enterotoxin E (Staphylococcus aureus, strain , UniProt P12993).
T4 construct: source: bought: Toxin Technology
Briefly: ELISA.

In assay [5] the target is biotin-labeled staphylococcal enterotoxin E (Staphylococcus aureus, strain , UniProt P12993, biotin (site not stated)). Description: SPR; Biacore T200; […]; 25°C; […]. The settings on record: both partners purified. (In general: SPR reads the build-up and loss of mass on a sensor chip optically.)
The target in assay [6] is biotin-labeled staphylococcal enterotoxin A (Staphylococcus aureus, strain , UniProt P0A0L2, biotin (site not stated)). Description: SPR; Biacore T200; […]; 25°C; […]. The settings on record: both partners purified.

B1: anti-SEE antibody HPK-016_203, recombinant IgG1 (antibody, V domains shown)
VH: EVQLVESGAEVKKPGESLKISCKGSGNTFTNYWIAWVRQRPGKGLEWMGIIYPGDSDTRYSLSFQGQVTISVDKSINTAYLQWSSLRASDTAIYFCVRHCSGGRCSSAPLDSWGQGTLVTVSS
VL: NFMLTQPPSVSESPGKTVTISCTRSSGSIGTYYVHWYQQRPGSAPTTLIYDDSHRPSGVPDRFSGSVDSSSNSASLIISGLKTEDEADYYCLSHDTTNFVFGGGTKLTVL
notes: also called 203 IgG1
B1: the binding result was “no binding” in assay [1] (both partners purified); “binds” in assay [2]; “no binding” in assay [3] (both partners purified); “binds” in assay [4] (one partner purified); “binds” in assay [5].

B2: anti-SEA antibody HPK-018_1B6, recombinant IgG1 (antibody, V domains shown)
VH: EVQLVESGGEVKKPGASVKVSCKTSGYTFSSYYMHWVRQAPGQGLEWMGVINPSGGSIKYAQKFQGRVTMTRDTSTTTIYMDLSSLRSDDTAVYYCAYWGADGFDIWGQGTMVTVSS
VL: QSVLTQPPSASGTPGQRVTISCSGSSSNIGSNSVNWYQQVPGTAPKLLTYGNNQRRSGVPDRFSGSKSGTSASLAISGLQSEDEADYSCAVWDDSLSAWVFGGGTKLTVL
notes: source: HEK 293T, transfected, culture supernatant
As to B2, in assay [3] (one partner purified), the binding result is given as “binds”.

B3: anti-SED antibody HPK-018_2D6, recombinant IgG1 (antibody, V domains shown)
VH: QVQLVQSGGGLVQPGRSLRLSCRASGFTFGEYAMSWVRQAPGKGVEWVSFIRSRTYGATTEYAASVKGRFTISRDDSESIVYLQMNSLKTEDTAVYYCTTYCSSTSCQIDYWGQGTLVTVSS
VL: QSALTQPPSASALLGASIKLTCTLSSEHSTYIIEWFQQRPGRSPQYIMDVKSDGSYTKGDGIPDRFMGSSSGADRYLTLSNLQSDDEAEYYCGESHTIDGQVGYVFGTGTKVTVL
notes: as for B2
Take B3: in assay [1] (one partner purified), the binding result is recorded as “binds”.

B4: anti-SEE antibody HPK-014_1G2, recombinant IgG1 (antibody, V domains shown)
VH: QVQLVESGGGVVPPGGSLRLSCATSGFKFNDYDMHWVRQAPGKGLEWVASIRYHGNKDYYADSVKGRFTISRDNSKNTLSLQMNSLRPEDTAIFYCARDRAQGIVAAAGTSFGYWGQGTLVTVSS
VL: SYELTQPPSVSVSPGQTARITCSADALPKQYVYWYQQKSGQAPVLVMYKDSERPSGIPERFSGSTSGSTVMLTISGVQEEDEAVYYCQSGDTSGFDPDVAFGGGTKLTVL
notes: also called 1G2 IgG1
Consider B4, for which the binding result in assay [1] (both partners purified) is “no binding”; in assay [2], “binds”; in assay [3] (both partners purified) it was “no binding”; in assay [4] (one partner purified) it was “binds”; in assay [5] it was “binds”.

B5: anti-SEE antibody HPK-014_1G2, Fab (Fab, V domains shown)
VH: QVQLVESGGGVVPPGGSLRLSCATSGFKFNDYDMHWVRQAPGKGLEWVASIRYHGNKDYYADSVKGRFTISRDNSKNTLSLQMNSLRPEDTAIFYCARDRAQGIVAAAGTSFGYWGQGTLVTVSS
VL: SYELTQPPSVSVSPGQTARITCSADALPKQYVYWYQQKSGQAPVLVMYKDSERPSGIPERFSGSTSGSTVMLTISGVQEEDEAVYYCQSGDTSGFDPDVAFGGGTKLTVL
notes: source: Expi293, purified (LambdaFabSelect agarose)
Turning to B5, the binding result in assay [4] (both partners purified) is given as “binds”.

B6: anti-SEE antibody HPK-014_1G2, recombinant IgE (antibody, V domains shown)
VH: QVQLVESGGGVVPPGGSLRLSCATSGFKFNDYDMHWVRQAPGKGLEWVASIRYHGNKDYYADSVKGRFTISRDNSKNTLSLQMNSLRPEDTAIFYCARDRAQGIVAAAGTSFGYWGQGTLVTVSS
VL: SYELTQPPSVSVSPGQTARITCSADALPKQYVYWYQQKSGQAPVLVMYKDSERPSGIPERFSGSTSGSTVMLTISGVQEEDEAVYYCQSGDTSGFDPDVAFGGGTKLTVL
notes: also called 1G2 IgE; anti-SEE IgE 1G2
For B6, the binding result in assay [4] (both partners purified) was “binds”.

B7: anti-SEA antibody 1F3, recombinant IgG1 (antibody, V domains shown)
VH: QVQLVESGTDVKKPGSSVKVSCKTSGGTFGDHGITWVRQAPEKGLEYVGRIIPNPGTAYHAQKFQGRVTITADESTGTAYLELSRLSFDDTAVYYCARGMTGYVGAYDYWGQGTLVTVSS
VL: QSVLTQPPSASGTPGQRVSISCSGSSSNIGSNSVSWYQLLPGTAPKLLIYFSHQRPSGVPDRFSASKSGTSASLAISDLQPEDEADYYCASWDDRLNGPVFGGGTKLTVL
notes: also called 1F3 IgG1; HPK-016_1F3
Turning to B7, the binding result was “binds” in assay [3] (both partners purified), “no binding” in assay [4] (both partners purified) and “binds” in assay [6].

B8: anti-SED antibody HPK-014_1A4, recombinant IgG1 (antibody, V domains shown)
VH: EVQLLESGGGLVQPGGSLRLSCAASGFNFDSYAMSWVRQAPGKGLEWVSSISSSGGATYYADSVKGRSTISRDNSKNTVSLQMNSLRAEDTAVYYCAKKRRYDAVTGYLFDMWGQGTMVTVSS
VL: DIVMTQSPFSLAVSLGERATMNCKSSQSVLHSSNNENYLAWYQQKPGQPPKLLIYWASTRESGVPDRFSGSGSGTDFTLTISSLQAEDVAVYYCQQFYSPAPYTFGQGTKLEIK
notes: as for B2
Regarding B8, in assay [1] (one partner purified), the binding result is on record as “binds”.
